Results reported in patent publication US10000542 (Novo Nordisk, dated 2018).
Numbered stars: 1 amine (or outer) side, 2 acyl side, 3 side chain; on linkers, the order of the positions; unused ones are H or OH. Square brackets hold non-standard residues; d marks the D form. Side chains are listed from the residue outwards. Ends that are not written are not given here. * marks the point of attachment. Dodecanoyl(12-OPh(4-COOH)) = O=C(O)c1ccc(OCCCCCCCCCCCC(=O)*)cc1; Undecanoyl(11-OPh(4-COOH)) = O=C(O)c1ccc(OCCCCCCCCCCC(=O)*)cc1; γGlu = O=C(O)[C@H](CCC(=O)[*:2])N[*:1]; εLys = N[C@@H](CCCCN[*:1])C(=O)[*:2]; AEEA = NCCOCCOCC(=O)O; Aib = CC(C)(N)C(=O)O

How the values were obtained:
human GLP-1 receptor [1] = biological target: T1, human GLP-1 receptor (human, UniProt P43220 24-463); assay: cell-based or functional assay
human GLP-1 receptor [2] = biological target: T1, human GLP-1 receptor; assay: cell-based or functional assay; remark: listed apart in the source
human GLP-1 receptor [3] = biological target: T1, human GLP-1 receptor; assay: SPA displacement of [125I]-GLP-1(7-36)NH2 from BHK membranes with human GLP-1 receptor, high HSA (2.0%)
human GLP-1 receptor [4] = biological target: T1, human GLP-1 receptor; assay: SPA displacement of [125I]-GLP-1(7-36)NH2 from BHK membranes with human GLP-1 receptor, low HSA (0.001%)
Protocol: (§1) 50 ul (micro liter) HSA ("high albumin" experiment containing 2% HSA), or buffer ("low albumin" experiment containing 0.001% HSA) was added to Optiplate, and 25 ul of test compounds were added. 5-10 ug membrane protein/sample was added (50 ul) corresponding to 0.1-0.2 mg protein/ml (to be preferably optimised for each membrane preparation). SPA-particles (Wheatgerm agglutinin SPA beads, Perkin Elmer, #RPNQ0001) were added in an amount of 0.5 mg/well (50 ul). […] The plates were sealed with PlateSealer and incubated for 120 minutes at 30° C. while shaking. The plates were centrifuged (1500 rpm, 10 min) and counted in Topcounter.

human GLP-1 receptor [5] = biological target: T1, human GLP-1 receptor; assay: SPA displacement of [125I]-GLP-1(7-36)NH2 from BHK membranes with human GLP-1 receptor, high HSA (2.0%); remark: listed apart in the source
Protocol: as §1

human GLP-1 receptor [6] = biological target: T1, human GLP-1 receptor; assay: cell-based or functional assay; remark: listed apart in the source
[7] = biological target: human serum albumin (HSA) (human, UniProt P02768 25-609); assay: cell-based or functional assay
human serum albumin (HSA), sequence (P02768 25-609 limits assumed): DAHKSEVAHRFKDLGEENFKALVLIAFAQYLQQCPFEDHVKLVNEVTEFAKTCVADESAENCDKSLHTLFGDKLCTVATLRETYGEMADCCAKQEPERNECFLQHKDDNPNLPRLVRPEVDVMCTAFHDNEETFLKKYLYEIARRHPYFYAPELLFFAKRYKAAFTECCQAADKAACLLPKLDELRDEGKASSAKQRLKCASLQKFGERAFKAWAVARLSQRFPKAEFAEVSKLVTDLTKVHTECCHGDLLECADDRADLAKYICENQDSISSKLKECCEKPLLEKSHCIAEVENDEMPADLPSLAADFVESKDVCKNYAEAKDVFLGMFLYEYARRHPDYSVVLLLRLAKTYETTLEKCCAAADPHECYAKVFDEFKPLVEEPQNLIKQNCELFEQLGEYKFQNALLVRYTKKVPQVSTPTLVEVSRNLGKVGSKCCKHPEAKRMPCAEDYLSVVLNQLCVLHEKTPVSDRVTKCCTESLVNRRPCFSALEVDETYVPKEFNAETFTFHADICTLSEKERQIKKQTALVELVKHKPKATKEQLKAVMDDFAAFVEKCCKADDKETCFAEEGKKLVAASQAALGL

Binder | EC50/pM (0% HSA), In vitro potency (CRE luciferase) (human GLP-1 receptor [1]) | In vitro potency (Example 44) EC50/pM (human GLP-1 receptor [2]) | In vitro potency (Example 45) (0% HSA) EC50/pM (human GLP-1 receptor [2]) | In vitro potency (Example 45) (1% HSA) EC50/pM (human GLP-1 receptor [2]) | IC50 (human GLP-1 receptor [3]) | IC50 (human GLP-1 receptor [4]) | EC50/pM (1% HSA), In vitro potency (CRE luciferase) (human GLP-1 receptor [1]) | IC50 (human GLP-1 receptor [5]) | EC50/pM, In vitro potency (AlphaScreen) (human GLP-1 receptor [6]) | EC50 (ratio 1% HSA/0% HSA), CRE luciferase [7]
XXEGTFTSDVSSYLEGQAAKEFIAWLVRGRK (not fully specified; Imp (imidazopropionyl, des-amino histidine) at 7; Aib at 8; Lys 26 and Lys 37 each acylated at the epsilon-amino group with the side chain given in the name (numbering of GLP-1(7-37))) | 7.9 pM | – | – | – | – | – | – | – | – | –
XXEGTFTSDVSSYLEGQAAKEFIAWLVRGRK (Imp (imidazopropionyl, des-amino histidine) at 7; Aib at 8; Lys 26 and Lys 37 each acylated at the epsilon-amino group with the side chain given in the name (numbering of GLP-1(7-37))) | 9.4 pM | – | – | – | – | – | – | – | – | –
HXEGTFTSDVSSYLEGQAAKEFIAWLVRGRK (Aib at 8; 26K and 37K acylated: protracting moiety C14 diacid, linker gGlu-2xOEG (numbering of GLP-1(7-37), His = 7), X stands for Aib) [Comparative compound (WO2011/080103) Example 4] | – | 366 pM | 46 pM | 92 pM | 357 nM | 6.02 nM | – | – | – | –
H[Aib]EGTFTSDVSSYLEEQAAK([εLys-AEEA-AEEA-γGlu-Undecanoyl(11-OPh(4-COOH))])EFIAWLVRGRK([εLys-AEEA-AEEA-γGlu-Undecanoyl(11-OPh(4-COOH))]) | 5.5 pM | – | – | – | – | 0.26 nM | 70 pM | 251 nM | – | –
H[Aib]EGTFTSDVSSYLEEQAAK([εLys-AEEA-AEEA-γGlu-Dodecanoyl(12-OPh(4-COOH))])EFIAWLVRGRK([εLys-AEEA-AEEA-γGlu-Dodecanoyl(12-OPh(4-COOH))]) | 3.6 pM | – | – | – | – | – | 141 pM | 484 nM | 369 pM | –
H[Aib]EGTFTSDVSSYLEEQAAK([εLys-γGlu-γGlu-Undecanoyl(11-OPh(4-COOH))])EFIEWLVRGRK([εLys-γGlu-γGlu-Undecanoyl(11-OPh(4-COOH))]) | 1.5 pM | – | – | – | – | 0.03 nM | 391 pM | 641 nM | – | 260 ratio
HXEGTFTSDVSSYLEGQAAKEFIAWLVHGRK (Aib at 8; Lys 26 and Lys 37 each acylated at the epsilon-amino group with the side chain given in the name (numbering of GLP-1(7-37), His = 7)) | 7.8 pM | – | – | – | – | 0.93 nM | 80 pM | 71 nM | 48 pM | 10.3 ratio
HXEGTFTSDVSSYLEGQAAKEFIAWLVQGRK (Aib at 8; Lys 26 and Lys 37 each acylated at the epsilon-amino group with the side chain given in the name (numbering of GLP-1(7-37), His = 7)) | 8.7 pM | – | – | – | – | 0.64 nM | 633 pM | 321 nM | 116 pM | 72 ratio
HXEGTFTSDVSSYLEGQAAKEFIAHLVQGRK (Aib at 8; Lys 26 and Lys 37 each acylated at the epsilon-amino group with the side chain given in the name (numbering of GLP-1(7-37), His = 7)) [N^ε26-[(2S)-2-amino-6-[[(2S)-2-amino-6-[[(4S)-4-carboxy-4-[11-(4-carboxyphenoxy)undecanoylamino]butanoyl]amino]hexanoyl]amino]hexanoyl], …, listing 1 of 2 here] | 7.2 pM | – | – | – | – | – | – | – | – | –
HXEGTFTSDVSSYLEGQAAKEFIAHLVQGRK (Aib at 8; Lys 26 and Lys 37 each acylated at the epsilon-amino group with the side chain given in the name (numbering of GLP-1(7-37), His = 7)) [N^ε26-[(2S)-2-amino-6-[[(2S)-2-amino-6-[[(4S)-4-carboxy-4-[10-(4-carboxyphenoxy)decanoylamino]butanoyl]amino]hexanoyl]amino]hexanoyl], …, listing 2 of 2 here] | 11 pM | – | 11 pM | 162 pM | 27 nM | 1.57 nM | – | – | – | –
H[Aib]EGTFTSDVSSYLEEQAAK([εLys-γGlu-γGlu-Undecanoyl(11-OPh(4-COOH))])EFIEWLVRGRK([εLys-γGlu-γGlu-Undecanoyl(11-OPh(4-COOH))])E (X stands for Aib) | – | – | – | – | – | 0.02 nM | – | 123 nM | – | –
